In publication PMC8769549:

How the values were obtained:
[1] = target: SARS-CoV-2 nsp3 ubiquitin-like domain Ubl1 (1 to 111) (SARS-CoV-2); assay: ITC
[2] = target: SARS-CoV-2 nsp3a (1 to 206) (SARS-CoV-2); assay: ITC

## SARS-CoV-2 nucleoprotein N123 (domains N1, N2 and N3) (domain or fragment)
[1]
  Kd: 72 nM
  stoichiometry N: 0.903
[2]
  Kd: 131 nM
  stoichiometry N: 0.665
